Data published in US20210139559A1 (XL PROTEIN, published 2021).

Experiments:
[1] = biological target: T1, human VEGF165 ligand (human, UniProt P15692-4 27-191); test: cell-based or functional assay
[2] = biological target: human PDGF-BB ligand (human, UniProt P01127 82-190); test: native PAGE electromobility gel shift; alone or together with VEGF165
Experimental: EPS1104P was mixed with VEGF₁₆₅ (#C083, Novoprotein, Shanghai, China), PDGF-BB (#C199, Novoprotein, Shanghai, China) and VEGF+PDGF-BB, and incubated in an ice bath for 30 min. 40 μL of the above three incubation mixtures and EPS1104P were added to 10 μl of 5× Loading buffer (#ES005, Wanshenghaotian, Shanghai, China), respectively, and the four samples were loaded on a native PAGE gel (#NGSH2001-8T, Wanshenghaotian, Shanghai, China). The electrophoresis was run at 70 V for 6 hours. The gel was stained with Coomassie blue and then bleached. […] It is also possible to combine EPS1104P with both VEGF165 and PDGF-BB to form a stable complex.

[3] = biological target: T1, human VEGF165 ligand; test: serial dilution mixed with 50 pM human VEGF165 in solution, unbound VEGF165 measured by ELISA
Experimental: The amount of unbound VEGF₁₆₅ was then measured by a human VEGF-specific ELISA (Human VEGF DuoSet ELISA kit, R&D Systems, CAT. No. DY293B-05).
Unbound human VEGF₁₆₅ or PDGF-BB was calculated using 4 parameters curve with the absorbance value. And the IC₅₀ of the tested fusion proteins and the reference was calculated using 4 parameters curve with unbound human VEGF₁₆₅ or PDGF-BB.

T1 sequence (P15692 other isoform, or with tags, fused parts or gaps limits assumed): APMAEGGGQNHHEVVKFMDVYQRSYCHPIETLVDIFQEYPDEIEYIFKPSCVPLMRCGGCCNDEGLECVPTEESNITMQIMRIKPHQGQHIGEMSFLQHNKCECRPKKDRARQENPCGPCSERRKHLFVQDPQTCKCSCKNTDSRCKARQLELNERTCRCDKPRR
Sequence of human PDGF-BB ligand (P01127 82-190): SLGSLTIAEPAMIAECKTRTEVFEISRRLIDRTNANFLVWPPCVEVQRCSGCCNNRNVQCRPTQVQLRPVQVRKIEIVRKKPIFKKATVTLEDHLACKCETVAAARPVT

B1: PDGFRαD123-PAS(400)-VEGFR1D2/R2D3 (receptor)
chain: QLSLPSILPNENEKVVQLNSSFSLRCFGESEVSWQYPMSEEESSDVEIRNEENNSGLFVTVLEVSSASAAHTGLYTCYYNHTQTEENELEGRHIYIYVPDPDVAFVPLGMTDYLVIVEDDDSAIIPCRTTDPETPVTLHNSEGVVPASYDSRQGFNGTFTVGPYICEATVKGKKFQTIPFNVYALKATSELDLEMEALKTVYKSGETIVVTCAVFNNEVVDLQWTYPGEVKGKGITMLEEIKVPSIKLVYTLTVPEATVKDSGDYECAARQATREVKEMKKVTISVHEKGASPAAPAPASPAAPAPSAPAASPAAPAPASPAAPAPSAPAASPAAPAPASPAAPAPSAPAASPAAPAPASPAAPAPSAPAASPAAPAPASPAAPAPSAPAASPAAPAPASPAAPAPSAPAASPAAPAPASPAAPAPSAPAASPAAPAPASPAAPAPSAPAASPAAPAPASPAAPAPSAPAASPAAPAPASPAAPAPSAPAASPAAPAPASPAAPAPSAPAASPAAPAPASPAAPAPSAPAASPAAPAPASPAAPAPSAPAASPAAPAPASPAAPAPSAPAASPAAPAPASPAAPAPSAPAASPAAPAPASPAAPAPSAPAASPAAPAPASPAAPAPSAPAASPAAPAPASPAAPAPSAPAASPAAPAPASPAAPAPSAPAASPAAPAPASPAAPAPSAPASDTGRPFVEMYSEIPEIIHMTEGRELVIPCRVTSPNITVTLKKFPLDTLIPDGKRIIWDSRKGFIISNATYKEIGLLTCEATVNGHLYKTNYLTHRQTNTIIDVVLSPSHGIELSVGEKLVLNCTARTELNVGIDFNWEYPSSKHQHKKLVNRDLKTQSGSEMKKFLSTLTIDGVTRSDQGLYTCAASSGLMTKKNSTFVRVHEKHHHHHH
notes: also called EPS1104P
For B1, the “Inhibition of HUVEC cells proliferation, IC50” value [1] was 1.43 nM, the binding result [2] was “binds” and the IC50 [3] was 0.495 nM.
